# Test results as given in PMC7613265, “Multi-scale ensemble properties of the Escherichia coli RNA degradosome” (Molecular microbiology, 2021).
# Biological target: the molecule itself
# Experiment: cryo-EM structure; single particle analysis of RNase E (1-529) at 10 uM without RNA, 8 mM CHAPSO; 7.8 A reconstruction, C1
protein,measurement,value
"RNase E catalytic domain (1-529) (domain or fragment, RNase E, E. coli, catalytic domain, residues 1-529; Studied without RNA; 8 mM CHAPSO added before grid freezing; also called RNase E catalytic core; RNase E (1-529); source: E. coli BL21(DE3), plasmid pRne529-N, purified (Ni chelating column, gel filtration)) not shown",stoichiometry N,4
